Measured values from US20240262791.

Tested on: dPsCas13b-133FSY (in HEK293T) A133FSY (fluorosulfate-L-tyrosine) (Prevotella sp. P5-125)
Assay: pulldown
Conditions: RIP RT-qPCR in HEK293T; no enrichment without crRNA

Work on crACTB guide ; ACTB mRNA yielded a binding signal (fold over dPsCas13b-WT) of 4.
